Measured values from patent US20260209345A1 (IOMX THERAPEUTICS, published 2026).

Assays:
recombinant LILRB2 ECD [1] = target: T1, recombinant LILRB2 ECD (human, UniProt Q8N423 22-460); assay: ELISA, LILRB2 ECD binding to HLA-G-Fc
T1 construct: also called biotinylated LILRB2 ECD
Description: (§1) HLA-G inhibition was tested by ELISA. 384-well Maxisorp plates were coated with 2 ug/mL B2M-HLA-G fused to a mouse IgG2a-Fc and the plates were blocked with 2% (w/v) BSA in PBST. […] 15 ul of the antibody dilution series (300 nM to 0.3 nM) were mixed with 30 μL of the pre-mixed LILRB/Avidin-HRP solution (final antibody concentration 100 nM to 0.1 nM) and incubated for 1 h at room temperature. After three wash cycles with PBST, 20 μL of the antibody/LILRB/Avidin-HRP solution was transferred to the plate with immobilized HLA-G and incubated for 15 min at room temperature. After three wash cycles with PBST, residual LILRB binding to HLA-G was detected by developing the ELISA with TMB substrate.

recombinant LILRB2 ECD [2] = target: T1, recombinant LILRB2 ECD; assay: BLI, IgG on AHC sensor, ECD in solution
Description: (§2) Briefly, IgGs were captured on anti-human capture (AHC) biosensors (Sartorius). […] Subsequently, the sensors were dipped into 1× Kinetics Buffer to measure the dissociation over 420 s. All sensorgrams were double referenced against 1× Kinetics Buffer and unloaded […] sensors to subtract sensor drifts and potential reference binding of the analytes. The affinities were determined by applying a 1:1 binding model.

recombinant LILRB1 ECD [3] = target: T2, recombinant LILRB1 ECD (human, UniProt Q8NHL6 24-461); assay: BLI, IgG on AHC sensor, ECD in solution
T2 construct: also called biotinylated LILRB1 ECD
T2 sequence (Q8NHL6 24-461 limits assumed): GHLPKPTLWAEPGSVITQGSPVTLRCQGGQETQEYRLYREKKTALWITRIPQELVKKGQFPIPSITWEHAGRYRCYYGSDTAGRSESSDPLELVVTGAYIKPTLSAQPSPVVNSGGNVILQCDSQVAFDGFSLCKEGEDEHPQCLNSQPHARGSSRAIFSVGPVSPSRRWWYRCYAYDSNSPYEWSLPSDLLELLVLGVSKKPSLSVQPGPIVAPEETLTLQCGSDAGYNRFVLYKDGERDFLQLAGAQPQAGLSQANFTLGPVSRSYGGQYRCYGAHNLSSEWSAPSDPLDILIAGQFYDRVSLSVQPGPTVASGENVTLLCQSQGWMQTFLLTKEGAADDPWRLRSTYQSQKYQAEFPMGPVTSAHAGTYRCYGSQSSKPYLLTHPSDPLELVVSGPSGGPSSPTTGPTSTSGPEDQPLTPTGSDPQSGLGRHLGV
Description: as §2

recombinant LILRA3 = target: T3, recombinant LILRA3 (human, UniProt Q8N6C8 24-439); assay: BLI, IgG on AHC sensor, ECD in solution
T3 construct: whole entry named; also called LILRA3 ECD; LILA3
T3 sequence (Q8N6C8 24-439 limits assumed): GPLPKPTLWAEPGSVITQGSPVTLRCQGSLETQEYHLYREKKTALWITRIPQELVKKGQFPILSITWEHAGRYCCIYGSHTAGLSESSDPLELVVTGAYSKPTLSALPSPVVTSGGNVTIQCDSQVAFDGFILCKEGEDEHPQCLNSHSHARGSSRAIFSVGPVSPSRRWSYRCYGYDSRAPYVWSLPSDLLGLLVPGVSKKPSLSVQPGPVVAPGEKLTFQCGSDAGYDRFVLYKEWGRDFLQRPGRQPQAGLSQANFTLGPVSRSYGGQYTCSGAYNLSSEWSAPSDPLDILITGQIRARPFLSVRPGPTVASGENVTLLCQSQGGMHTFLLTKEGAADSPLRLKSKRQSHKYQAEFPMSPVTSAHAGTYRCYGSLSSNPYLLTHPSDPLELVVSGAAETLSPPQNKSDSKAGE
Description: as §2

recombinant LILRA1 ECD = target: T4, recombinant LILRA1 ECD (human, UniProt O75019 17-461); assay: BLI, IgG on AHC sensor, ECD in solution
T4 construct: whole canonical entry named; also called LILA1
T4 sequence (O75019 17-461 limits assumed): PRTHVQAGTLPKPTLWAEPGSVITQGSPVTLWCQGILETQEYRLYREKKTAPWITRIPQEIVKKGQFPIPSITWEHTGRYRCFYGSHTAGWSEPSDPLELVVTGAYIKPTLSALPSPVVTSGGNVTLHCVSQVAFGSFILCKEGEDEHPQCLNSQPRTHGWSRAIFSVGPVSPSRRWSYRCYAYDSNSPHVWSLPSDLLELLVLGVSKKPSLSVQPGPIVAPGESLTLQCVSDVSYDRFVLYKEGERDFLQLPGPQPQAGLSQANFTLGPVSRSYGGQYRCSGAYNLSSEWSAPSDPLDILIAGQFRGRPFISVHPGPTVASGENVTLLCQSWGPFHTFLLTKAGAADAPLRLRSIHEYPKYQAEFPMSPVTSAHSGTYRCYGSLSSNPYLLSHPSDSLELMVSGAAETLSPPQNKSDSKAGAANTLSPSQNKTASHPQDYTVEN
Description: as §2

recombinant LILRB1 ECD [4] = target: T2, recombinant LILRB1 ECD; assay: ELISA, LILRB1 ECD binding to HLA-G-Fc
Description: as §1

T1 sequence (Q8N423 22-460 limits assumed): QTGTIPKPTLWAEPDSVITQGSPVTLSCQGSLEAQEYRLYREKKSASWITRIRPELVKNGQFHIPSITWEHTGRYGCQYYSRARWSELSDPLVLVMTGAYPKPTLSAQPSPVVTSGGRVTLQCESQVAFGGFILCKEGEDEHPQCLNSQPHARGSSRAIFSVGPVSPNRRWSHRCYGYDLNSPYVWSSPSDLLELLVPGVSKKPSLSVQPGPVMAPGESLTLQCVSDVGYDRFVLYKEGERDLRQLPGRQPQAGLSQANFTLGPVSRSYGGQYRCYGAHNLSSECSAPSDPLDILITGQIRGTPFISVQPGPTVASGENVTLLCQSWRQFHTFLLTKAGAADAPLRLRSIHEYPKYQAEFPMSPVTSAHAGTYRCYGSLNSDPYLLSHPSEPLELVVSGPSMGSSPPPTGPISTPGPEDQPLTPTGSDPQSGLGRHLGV

| Binder | IC50 (recombinant LILRB2 ECD [1]) [nM] | Kd (recombinant LILRB2 ECD [2]) [nM] | Kd (recombinant LILRB1 ECD [3]) [nM] | Kd (recombinant LILRA3) [nM] | Kd (recombinant LILRA1 ECD) [nM] | IC50 (recombinant LILRB1 ECD [4]) [nM] |
| --- | --- | --- | --- | --- | --- | --- |
| A-031 (antibody, V domains shown, tested as IgG) VH: QVQLVQSGAEVKKPGSSVKVSCKASGYTFTKTAMSWVRQAPGQGLEWMGGIIPSYYTAVYAQKFQGRVTITADESTSTAYMELSSLRSEDTAVYYCAKGPPVGSSSWYTDWYFDLWGRGTLVTVSS VL: SYELTQPPSVSVSPGQTASITCSGDKLGDKYASWYQQKPGQSPVLVIYQDSKRPSGIPERFSGSNSGNTATLTISGTQAEDEADYYCLSYGAHSHGVVFGGGTKLTVL | 4.2 | 0.9 | 0.8 | 50.1 | 11.6 | 4.1 |
| A-027 (antibody, V domains shown, tested as IgG) VH: QVQLVQSGAEVKKPGSSVKVSCKASGGSFTGYAISWVRQAPGQGLEWMGGILPSFYTAVYAQKFQGRVTITADESTSTAYMELSSLRSEDTAVYYCAKGPPVGSSSWYTDWYFDLWGRGTLVTVSS VL: SYELTQPPSVSVSPGQTASITCSGDKLGDKYASWYQQKPGQSPVLVIYQDSKRPSGIPERFSGSNSGNTATLTISGTQAEDEADYYCLSYGAHSHGVVFGGGTKLTVL | 5.6 | 1.9 | 0.5 | 124 | 33.9 | 7 |
| A-040 (antibody, V domains shown, tested as IgG) VH: QVQLVQSGAEVKKPGSSVKVSCKASGGTFSSYAISWVRQAPGQGLEWMGGIIPIFGTANYAQKFQGRVTITADESTSTAYMELSSLRSEDTAVYYCAKGPPVGSSSWYTDWYFDLWGRGTLVTVSS VL: SYELTQPPSVSVSPGQTASITCSGDKLGDKYASWYQQKPGQSPVLVIYQDSKRPSGIPERFSGSNSGNTATLTISGTQAEDEADYYCSLYGPAHTGVFGGGTKLTVL | 7 | 0.3 | 6.6 | 345 | 51.6 | 2.1 |
| A-030 (antibody, V domains shown, tested as IgG) VH: QVQLVQSGAEVKKPGSSVKVSCKASGGSFQSYAFSWVRQAPGQGLEWMGGIVPIYYTATYAQKFQGRVTITADESTSTAYMELSSLRSEDTAVYYCAKGPPVGSSSWYTDWYFDLWGRGTLVTVSS VL: SYELTQPPSVSVSPGQTASITCSGDKLGDKYASWYQQKPGQSPVLVIYQDSKRPSGIPERFSGSNSGNTATLTISGTQAEDEADYYCLSYGAHSHGVVFGGGTKLTVL | 4.4 | 3.2 | 3.2 | 124 | 63.8 | 6.7 |
| A-041 (antibody, V domains shown, tested as IgG) VH: QVQLVQSGAEVKKPGSSVKVSCKASGGTFSSYAISWVRQAPGQGLEWMGGIIPIFGTANYAQKFQGRVTITADESTSTAYMELSSLRSEDTAVYYCAKGPPVGSSSWYTDWYFDLWGRGTLVTVSS VL: SYELTQPPSVSVSPGQTASITCSGDKLGDKYASWYQQKPGQSPVLVIYQDSKRPSGIPERFSGSNSGNTATLTISGTQAEDEADYYCSSYGSGLTVVFGGGTKLTVL | 4.4 | 5.8 | 17.5 | 465 | 242 | 1.5 |
| A-028 (antibody, V domains shown, tested as IgG) VH: QVQLVQSGAEVKKPGSSVKVSCKASGYSFSEHAMSWVRQAPGQGLEWMGGIIPKFSTSVFAQKFQGRVTITADESTSTAYMELSSLRSEDTAVYYCAKGPPVGSSSWYTDWYFDLWGRGTLVTVSS VL: SYELTQPPSVSVSPGQTASITCSGDKLGDKYASWYQQKPGQSPVLVIYQDSKRPSGIPERFSGSNSGNTATLTISGTQAEDEADYYCLSYGAHSHGVVFGGGTKLTVL | 3.9 | 1.6 | 1.8 | 187 | 48.3 | 3.9 |
| A-048 (antibody, V domains shown, tested as IgG) VH: QVQLVQSGAEVKKPGSSVKVSCKASGYTFSKSAMSWVRQAPGQGLEWMGGIVPKFHTSVYAQKFQGRVTITADESTSTAYMELSSLRSEDTAVYYCAKGPPVGSSSWYTDWYFDLWGRGTLVTVSS VL: SYELTQPPSVSVSPGQTASITCSGDKLGDKYASWYQQKPGQSPVLVIYQDSKRPSGIPERFSGSNSGNTATLTISGTQAEDEADYYCALYGGGHTVVFGGGTKLTVL | 4.1 | 5.6 | 8.7 | 1970 | 1070 | 2 |
| A-029 (antibody, V domains shown, tested as IgG) VH: QVQLVQSGAEVKKPGSSVKVSCKASGYTFSIYAMSWVRQAPGQGLEWMGGIIPSFRTAVYAQKFQGRVTITADESTSTAYMELSSLRSEDTAVYYCAKGPPVGSSSWYTDWYFDLWGRGTLVTVSS VL: SYELTQPPSVSVSPGQTASITCSGDKLGDKYASWYQQKPGQSPVLVIYQDSKRPSGIPERFSGSNSGNTATLTISGTQAEDEADYYCLSYGAHSHGVVFGGGTKLTVL | 5.6 | 2.7 | 1.9 | 123 | 29.5 | 6.5 |
